Patent US20190233517A1 (published 2019)

T1: CD20 on the cell surface of Raji cells (human, UniProt P11836 1-297)
T1 construct: whole, on cells; also called CD20 (Raji)
T1 sequence (looked up): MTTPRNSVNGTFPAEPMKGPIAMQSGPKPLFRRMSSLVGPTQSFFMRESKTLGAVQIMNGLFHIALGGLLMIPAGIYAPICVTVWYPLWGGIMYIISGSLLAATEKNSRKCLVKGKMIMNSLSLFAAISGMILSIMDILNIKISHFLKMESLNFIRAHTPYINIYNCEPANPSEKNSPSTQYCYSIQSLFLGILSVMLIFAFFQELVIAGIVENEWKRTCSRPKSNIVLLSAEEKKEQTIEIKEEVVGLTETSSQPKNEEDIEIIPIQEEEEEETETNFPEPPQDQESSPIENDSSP

T2: cynomolgus CD20 on transiently transfected HEK 293 cells (cynomolgus, UniProt M4ZHZ6 1-297)
T2 construct: whole, on cells; also called cynoCD20
T2 sequence: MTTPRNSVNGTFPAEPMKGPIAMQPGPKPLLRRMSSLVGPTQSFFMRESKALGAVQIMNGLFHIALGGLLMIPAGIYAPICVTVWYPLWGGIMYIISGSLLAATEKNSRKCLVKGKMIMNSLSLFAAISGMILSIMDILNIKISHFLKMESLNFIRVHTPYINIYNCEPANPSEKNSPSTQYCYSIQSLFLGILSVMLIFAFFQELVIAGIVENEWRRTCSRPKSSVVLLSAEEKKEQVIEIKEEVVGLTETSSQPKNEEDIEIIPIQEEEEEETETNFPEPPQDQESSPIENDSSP


Legend:
[1] = target: membrane EGFR (human, UniProt P00533 25-1210); assay: cell-based or functional assay
[2] = target: T1, CD20 on the cell surface of Raji cells; assay: flow cytometry on Raji cells, 100 nM
[3] = target: T1, CD20 on the cell surface of Raji cells; assay: flow cytometry on Raji cells
Description: (§1) Raji cell was used for detecting human B cell binding. […] Cells were washed in PBS buffer containing 2% FBS. […] Cells were washed and signal was detected with a BD FACSVerse flow cytometer according to manufacture's protocols.

[4] = target: T2, cynomolgus CD20 on transiently …; assay: flow cytometry on HEK 293 cells transfected with cynoCD20
Description: as §1

EGFR Depletion (%), H441 cell, FACS after >16 hrs at 37 C [1] | Binding Intensity by FACS (MFI) [2] | Binder | also measured
65.9% |  | FIT013a cMet (h1332 (13.3.2L-A91T,H-42K,S97T))/EGFR (panitumumab) (bispecific antibody, human IgG1, kappa) chain 1: not shown chain 2: QVQLVQSGAEVKKPGASVKVSCKASGYTFTSYGFSWVRQAPGQGLEWMGWISASNGNTYYAQKLQGRVTMTTDTSTSTAYMELRSLRSDDTAVYYCARVYADYADYWGQGTLVTVSSASTKGPSVFPLAPSSKSTSGGTAALGCLVKDYFPEPVTVSWNSGALTSGVHTFPAVLQSSGLYSLSSVVTVPSSSLGTQTYICNVNHKPSNTKVDKKVEPKSC chain 3: not shown | 
 | 274 MFI | OKT3/Ofatumumab FIT8-Ig (bispecific antibody, human IgG1, kappa, FIT-Ig of 3 polypeptides, two copies of each chain, human IgG1 Fc) chain 1: not shown chain 2: not shown chain 3: not shown | 
 | 291 MFI | OKT3/Ofatumumab FIT7-Ig (bispecific antibody, human IgG1, kappa, FIT-Ig of 3 polypeptides, two copies of each chain, human IgG1 Fc) chain 1: not shown chain 2: not shown chain 3: not shown | 
 |  | FIT018a CD20 (Ofatumumab)/CD3 mAb (bispecific antibody, human IgG1, kappa, lambda, L234A L235A) chain 1: not shown chain 2: EVQLVESGGGLVQPGRSLRLSCAASGFTFNDYAMHWVRQAPGKGLEWVSTISWNSGSIGYADSVKGRFTISRDNAKKSLYLQMNSLRAEDTALYYCAKDIQYGNYYYGMDVWGQGTTVTVSSASTKGPSVFPLAPSSKSTSGGTAALGCLVKDYFPEPVTVSWNSGALTSGVHTFPAVLQSSGLYSLSSVVTVPSSSLGTQTYICNVNHKPSNTKVDKKVEPKSC chain 3: ELVVTQEPSLTVSPGGTVTLTCRSSTGAVTTSNYANWVQQKPGQAPRGLIGGTNKRAPGTPARFSGSLLGGKAALTLSGVQPEDEAEYYCALWYSNLWVFGGGTKLTVLGQPKAAPSVTLFPPSSEELQANKATLVCLISDFYPGAVTVAWKADSSPVKAGVETTTPSKQSNNKYAASSYLSLTPEQWKSHRSYSCQVTHEGSTVEKTVAPTECS | binding result [3]: binds; binding result [4]: binds
0% |  | cMet antibody h1332 (13.3.2L-A91T,H-42K,S97T) (antibody, V domains shown) VH: QVQLVQSGAEVKKPGASVKVSCKASGYTFTSYGFSWVRQAPGQGLEWMGWISASNGNTYYAQKLQGRVTMTTDTSTSTAYMELRSLRSDDTAVYYCARVYADYADYWGQGTLVTVSS VL: DIQMTQSPSSVSASVGDRVTITCRASQGINTWLAWYQQKPGKAPKLLIYAASSLKSGVPSRFSGSGSGTDFTLTISSLQPEDFATYYCQQANSFPLTFGGGTKVEIK | 
